Columns and labels:
[1] = target: T1, Kitakyushu lung cancer antigen-1 (KK-LC-1) protein (human (tissue slices of patients), UniProt Q5H943 1-113); experiment: immunohistochemical staining of formaldehyde-fixed tissue slices
T1 construct: Endogenous protein in formaldehyde-fixed tissue slices (testis, seminoma, gastric tissue) stained by immunohistochemistry; also called NP_001017978.1
T1 sequence: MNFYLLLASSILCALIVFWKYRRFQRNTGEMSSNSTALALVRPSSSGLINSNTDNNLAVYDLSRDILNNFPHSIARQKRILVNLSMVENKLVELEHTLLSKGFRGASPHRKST
Text: Tissue slices of a normal region and a tumor region of a patient suffering from a testicular tumor and tissue slices of a normal region and a tumor region in a gastric tissue of a patient suffering from a gastric cancer, which are fixed with formaldehyde, were stained by using the produced monoclonal antibodies.

SEQ ID NO 70 = target: T2, SEQ ID NO 70; experiment: peptide array of 15-mers, antibody diluted to 1/100 and 1/500
T2 construct: 15-residue KK-LC-1 peptide of the peptide array
T2 peptide: LVELEHTLLSKGFRG
Text: (§1) An antigen of the monoclonal antibody produced by the hybridoma cell line (accession number: NITE BP-02527) was identified by epitope mapping. Specifically, first, 73 types of 15-amino acid residue peptides in which a position on an N-terminus side was shifted by one amino acid residue each were synthesized based on the amino acid sequence of the KK-LC-1 protein to produce a peptide array. Amino acid sequences of the 73 types of peptides are shown in SEQ ID NOs: 13 to 85, respectively.
(§2) Subsequently, the peptide array was reacted with a monoclonal antibody to identify peptides having reactivity. The monoclonal antibody was diluted to 1/100 and 1/500 and the resultants were each reacted.

SEQ ID NO 65 = target: T3, SEQ ID NO 65; experiment: as above
T3 construct: 15-residue KK-LC-1 peptide of the peptide array
T3 peptide: MVENKLVELEHTLLS
Text: as §1, §2

[2] = target: T4, LSMVENKLVELEHTL (SEQ ID NO: 63); experiment: as above
T4 construct: 15-residue KK-LC-1 peptide of the peptide array
T4 peptide: LSMVENKLVELEHTL
Text: as §1, §2

[3] = target: T5, VELEHTLLSKGFRGA (SEQ ID NO: 71); experiment: as above
T5 construct: 15-residue KK-LC-1 peptide of the peptide array
T5 peptide: VELEHTLLSKGFRGA
Text: as §1, §2

SEQ ID NO 66 = target: T6, SEQ ID NO 66; experiment: as above
T6 construct: 15-residue KK-LC-1 peptide of the peptide array
T6 peptide: VENKLVELEHTLLSK
Text: as §1, §2

SEQ ID NO 67 = target: T7, SEQ ID NO 67; experiment: as above
T7 construct: 15-residue KK-LC-1 peptide of the peptide array
T7 peptide: ENKLVELEHTLLSKG
Text: as §1, §2

SEQ ID NO 68 = target: T8, SEQ ID NO 68; experiment: as above
T8 construct: 15-residue KK-LC-1 peptide of the peptide array
T8 peptide: NKLVELEHTLLSKGF
Text: as §1, §2

SEQ ID NO 64 = target: T9, SEQ ID NO 64; experiment: as above
T9 construct: 15-residue KK-LC-1 peptide of the peptide array
T9 peptide: SMVENKLVELEHTLL
Text: as §1, §2

SEQ ID NO 69 = target: T10, SEQ ID NO 69; experiment: as above
T10 construct: 15-residue KK-LC-1 peptide of the peptide array
T10 peptide: KLVELEHTLLSKGFR
Text: as §1, §2

[4] = target: T11, peptide having the amino acid sequence set forth in SEQ ID NO: 1; experiment: ELISA on immobilized peptide (Experimental Example 2) and absorption operation (Experimental Example 4)
T11 construct: Immunogen; immobilized on a 96-well plate in the ELISA and used for the absorption operation at 0.05 mg/mL; also called immunized peptide; peptide used for the immunization of the mouse
T11 peptide: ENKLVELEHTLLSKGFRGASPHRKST
Protocol: Reactivity of a monoclonal antibody was confirmed by an ELISA method using an immunized peptide as an antigen. Specifically, first, the peptide having the amino acid sequence set forth in SEQ ID NO: 1 was immobilized on a 96-well plate. Moreover, as a control, a 96-well plate in which only blocking was performed without immobilizing the peptide was used. A skim milk solution was used for the blocking.
Subsequently, the 96-well plate was blocked, a culture supernatant of each established hybridoma cell line was added thereto, and a reaction was performed. Moreover, for comparison, wells reacted with a normal mouse serum were also prepared. Next, the unreacted monoclonal antibody was washed off, the resultant was reacted with an anti-mouse secondary antibody, and a chromogenic substrate was added to develop color. Then, absorbance of each well was measured using a plate reader.
For the absorption operation of the monoclonal antibody, the peptide having the amino acid sequence set forth in SEQ ID NO: 1 was used at a final concentration of 0.05 mg/mL. Moreover, the absorption operation was performed overnight at 4° C. [0090] (a) to (d) of FIG. 3 are photographs showing results of immunohistochemical staining. In each case, a magnification was 200 times. […]

Measured: binding result

B1: monoclonal antibody produced by the hybridoma cell line having an accession number of NITE BP-02527 (antibody, V domains shown)
VH: EVQLQQSGPELVKPGASVKMSCKTSGYTSTEYTMHWVKQSHGQSLEWIGVIYPNNGDTSYNQKFRGKATLTVDKSSNTAYMELRSLTSEDSAVYYCARLGWQGFANWGQGTLVTVSA
VL: DIVMTQAAPSVPVTPGESVSISCRSSKSLLHSNGNTFLYWFLQRPGQSPQLLIYRMSNLASGVPDRFSGSGSGTAFTLRISRVEAEDVGVYYCMQHLEYPLTFGAGTKLELK
notes: Mouse hybridoma antibody, used as culture supernatant; also called 34B3; 277 34B3 20170123
binds: [1] | SEQ ID NO 70 | SEQ ID NO 65 | [2] | [3] | SEQ ID NO 66 | SEQ ID NO 67 | SEQ ID NO 68 | SEQ ID NO 64 | SEQ ID NO 69 | [4]

— patent US20210079110A1 (SCHOOL JURIDICAL PERSON THE KITASATO INSTITUTE, published 2021)
